Measured values as given in patent CN105524169A (UNIV NANCHANG, dated 2016).

Experiments:
[1] = biological target: T1, PSMA on LNCaP prostate cancer cells (UniProt Q04609 1-750, limits assumed); assay: cell ELISA on fixed LNCaP (PSMA+) against MKN45 (PSMA-) cells, HRP-anti-M13, OD450
T1 construct: whole, on cells; Cells fixed with 4% paraformaldehyde before the assay; also called 前列腺特异性膜抗原; LNCaP细胞(表达PSMA)

[2] = biological target: T2, PSMA胞外区蛋白 (recombinant extracellular region of prostate specific membrane antigen, expressed in HEK-293) (UniProt Q04609 44-750, limits assumed); assay: indirect phage ELISA, PSMA extracellular region protein coated at 5 μg/mL, HRP-anti-M13 detection
T2 construct: extracellular domain; also called 前列腺特异性膜抗原膜外区; PSMA蛋白
T2 sequence (Q04609 44-750 limits assumed): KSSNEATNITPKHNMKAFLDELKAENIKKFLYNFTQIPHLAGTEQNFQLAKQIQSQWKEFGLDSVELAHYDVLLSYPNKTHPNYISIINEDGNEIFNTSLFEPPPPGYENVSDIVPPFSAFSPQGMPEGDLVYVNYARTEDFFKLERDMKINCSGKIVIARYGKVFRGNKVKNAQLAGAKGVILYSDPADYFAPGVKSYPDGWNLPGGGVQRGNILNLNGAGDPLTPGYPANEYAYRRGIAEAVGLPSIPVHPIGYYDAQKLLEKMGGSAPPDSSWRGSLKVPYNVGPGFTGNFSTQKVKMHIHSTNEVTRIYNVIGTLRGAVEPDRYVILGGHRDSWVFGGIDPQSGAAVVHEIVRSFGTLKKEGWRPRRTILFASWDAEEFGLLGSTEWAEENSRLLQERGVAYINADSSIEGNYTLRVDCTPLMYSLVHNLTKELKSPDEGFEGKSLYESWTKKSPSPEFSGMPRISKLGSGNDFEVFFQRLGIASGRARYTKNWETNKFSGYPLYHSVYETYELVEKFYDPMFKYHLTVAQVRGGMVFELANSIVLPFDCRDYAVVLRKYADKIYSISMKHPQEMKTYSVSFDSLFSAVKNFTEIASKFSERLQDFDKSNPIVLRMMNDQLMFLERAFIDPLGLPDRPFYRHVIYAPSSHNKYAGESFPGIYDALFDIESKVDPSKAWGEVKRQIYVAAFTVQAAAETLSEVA

T1 sequence (Q04609 whole entry): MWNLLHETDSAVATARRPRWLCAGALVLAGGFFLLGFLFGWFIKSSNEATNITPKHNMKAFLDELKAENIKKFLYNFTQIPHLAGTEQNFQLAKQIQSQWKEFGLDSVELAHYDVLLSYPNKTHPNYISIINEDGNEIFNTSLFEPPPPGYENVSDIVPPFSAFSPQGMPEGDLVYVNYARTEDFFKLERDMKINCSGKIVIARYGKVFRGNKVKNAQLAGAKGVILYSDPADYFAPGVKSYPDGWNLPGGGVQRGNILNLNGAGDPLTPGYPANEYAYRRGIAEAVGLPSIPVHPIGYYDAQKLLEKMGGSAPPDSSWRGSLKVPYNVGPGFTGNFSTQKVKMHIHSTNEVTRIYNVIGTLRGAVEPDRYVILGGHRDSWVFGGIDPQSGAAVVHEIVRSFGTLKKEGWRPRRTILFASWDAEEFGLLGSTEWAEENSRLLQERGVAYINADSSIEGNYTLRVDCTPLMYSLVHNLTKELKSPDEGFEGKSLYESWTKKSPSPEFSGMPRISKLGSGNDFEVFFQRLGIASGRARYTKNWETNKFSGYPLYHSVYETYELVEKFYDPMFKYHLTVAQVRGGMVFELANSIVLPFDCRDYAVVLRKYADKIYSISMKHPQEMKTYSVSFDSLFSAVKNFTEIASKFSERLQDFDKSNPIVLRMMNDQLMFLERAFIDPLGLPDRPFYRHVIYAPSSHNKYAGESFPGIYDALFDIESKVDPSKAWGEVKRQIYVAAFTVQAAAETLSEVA

B1: 抗前列腺特异性膜抗原单域重链抗体噬菌体阳性克隆 (phage clone displaying the anti-PSMA single-domain heavy-chain antibody) (VHH)
VHH: QVQLVESGGGLVQAGGSLRLSCAASGRTISRYAVGWFRQAPGKDREFVAGITRSSSLTGYTDSVKGRFTISRDNAENTVYLQMNSLKPEDTAVYYCAGGPGSYKYWGKGTQVTVSS
notes: detected with anti-M13 antibodies; also called 展示本发明所述纳米抗体的噬菌体克隆; not shown: hinge/linker and coat protein fusion are not described
[1]
  binding result: binds
[2]
  binding result: binds
